# In paper PMC10030467 (Nature Communications, 2023):
# Numbering of substitutions follows the chain as printed. Names and notes keep the numbering of the source. Values joined by “and” are separate entries in the source; they are usually repeats but may differ in a detail not shown here. Equal values may be shown once.
# B1: TRIM72^ΔSPRY (2-287) (domain or fragment, human, UniProt Q6ZMU5-1 2-287, looked up)
# chain: SAAPGLLHQELSCPLCLQLFDAPVTAECGHSFCRACLGRVAGEPAADGTVLCPCCQAPTRPQALSTNLQLARLVEGLAQVPQGHCEEHLDPLSIYCEQDRALVCGVCASLGSHRGHRLLPAAEAHARLKTQLPQQKLQLQEACMRKEKSVAVLEHQLVEVEETVRQFRGAVGEQLGKMRVFLAALEGSLDREAERVRGEAGVALRRELGSLNSYLEQLRQMEKVLEEVADKPQTEFLMKYCLVTSRLQKILAESPPPARLDIQLPIISDDFKFQVWRKMFRALMPA
# notes: TRIM72, human, residues 2-287 (RING, B-box, coiled-coil); source: E. coli Rosetta (DE3), purified; not shown: His-Sumo, N-terminal, cleaved
# B2: TRIM72^ΔRING (84-477) (domain or fragment, human, UniProt Q6ZMU5-1 84-477, looked up)
# chain: GHCEEHLDPLSIYCEQDRALVCGVCASLGSHRGHRLLPAAEAHARLKTQLPQQKLQLQEACMRKEKSVAVLEHQLVEVEETVRQFRGAVGEQLGKMRVFLAALEGSLDREAERVRGEAGVALRRELGSLNSYLEQLRQMEKVLEEVADKPQTEFLMKYCLVTSRLQKILAESPPPARLDIQLPIISDDFKFQVWRKMFRALMPALEELTFDPSSAHPSLVVSSSGRRVECSEQKAPPAGEDPRQFDKAVAVVAHQQLSEGEHYWEVDVGDKPRWALGVIAAEAPRRGRLHAVPSQGLWLLGLREGKILEAHVEAKEPRALRSPERRPTRIGLYLSFGDGVLSFYDASDADALVPLFAFHERLPRPVYPFFDVCWHDKGKNAQPLLLVGPEGAEA
# notes: TRIM72, human, residues 84-477 (B-box, coiled-coil, SPRY); also called RING deletion; source: E. coli Rosetta (DE3), purified; not shown: His-Sumo, N-terminal, cleaved
# B3: TRIM72^ΔRING-B-box (122-477) (domain or fragment, human, UniProt Q6ZMU5-1 122-477, looked up)
# chain: AAEAHARLKTQLPQQKLQLQEACMRKEKSVAVLEHQLVEVEETVRQFRGAVGEQLGKMRVFLAALEGSLDREAERVRGEAGVALRRELGSLNSYLEQLRQMEKVLEEVADKPQTEFLMKYCLVTSRLQKILAESPPPARLDIQLPIISDDFKFQVWRKMFRALMPALEELTFDPSSAHPSLVVSSSGRRVECSEQKAPPAGEDPRQFDKAVAVVAHQQLSEGEHYWEVDVGDKPRWALGVIAAEAPRRGRLHAVPSQGLWLLGLREGKILEAHVEAKEPRALRSPERRPTRIGLYLSFGDGVLSFYDASDADALVPLFAFHERLPRPVYPFFDVCWHDKGKNAQPLLLVGPEGAEA
# notes: TRIM72, human, residues 122-477 (coiled-coil and SPRY); also called CC-SPRY; source: E. coli Rosetta (DE3), purified; not shown: His-Sumo, N-terminal, cleaved
# B4: TRIM72 W277A (natural protein, human, UniProt Q6ZMU5-1 2-477, looked up)
# chain: SAAPGLLHQELSCPLCLQLFDAPVTAECGHSFCRACLGRVAGEPAADGTVLCPCCQAPTRPQALSTNLQLARLVEGLAQVPQGHCEEHLDPLSIYCEQDRALVCGVCASLGSHRGHRLLPAAEAHARLKTQLPQQKLQLQEACMRKEKSVAVLEHQLVEVEETVRQFRGAVGEQLGKMRVFLAALEGSLDREAERVRGEAGVALRRELGSLNSYLEQLRQMEKVLEEVADKPQTEFLMKYCLVTSRLQKILAESPPPARLDIQLPIISDDFKFQVARKMFRALMPALEELTFDPSSAHPSLVVSSSGRRVECSEQKAPPAGEDPRQFDKAVAVVAHQQLSEGEHYWEVDVGDKPRWALGVIAAEAPRRGRLHAVPSQGLWLLGLREGKILEAHVEAKEPRALRSPERRPTRIGLYLSFGDGVLSFYDASDADALVPLFAFHERLPRPVYPFFDVCWHDKGKNAQPLLLVGPEGAEA
# notes: TRIM72, human, residues 2-477, point mutant; primers are in Supplementary Data 3; source: E. coli Rosetta (DE3), purified; not shown: His-Sumo, N-terminal, cleaved
# B5: TRIM72 R169A (natural protein, human, UniProt Q6ZMU5-1 2-477, looked up)
# chain: B4 chain with R168A, A276W
# notes: TRIM72, human, residues 2-477, point mutant; source: E. coli Rosetta (DE3), purified; not shown: His-Sumo, N-terminal, cleaved
# B6: TRIM72 R198E (natural protein, human, UniProt Q6ZMU5-1 2-477, looked up)
# chain: B4 chain with R197E, A276W
# notes: as for B5
# B7: TRIM72 R198A (natural protein, human, UniProt Q6ZMU5-1 2-477, looked up)
# chain: B4 chain with R197A, A276W
# notes: as for B5
# B8: TRIM72 R169E (natural protein, human, UniProt Q6ZMU5-1 2-477, looked up)
# chain: B4 chain with R168E, A276W
# notes: as for B5
# B9: TRIM72 W277E (natural protein, human, UniProt Q6ZMU5-1 2-477, looked up)
# chain: B4 chain with A276E
# notes: as for B5
# B10: TRIM72 R180A (natural protein, human, UniProt Q6ZMU5-1 2-477, looked up)
# chain: B4 chain with R179A, A276W
# notes: as for B5
# B11: TRIM72 F272A (natural protein, human, UniProt Q6ZMU5-1 2-477, looked up)
# chain: B4 chain with F271A, A276W
# notes: as for B5
# B12: TRIM72 R180E (natural protein, human, UniProt Q6ZMU5-1 2-477, looked up)
# chain: B4 chain with R179E, A276W
# notes: as for B5
# B13: TRIM72 M179E (natural protein, human, UniProt Q6ZMU5-1 2-477, looked up)
# chain: B4 chain with M178E, A276W
# notes: as for B5
# B14: TRIM72 R220E (natural protein, human, UniProt Q6ZMU5-1 2-477, looked up)
# chain: B4 chain with R219E, A276W
# notes: as for B5
# B15: TRIM72 R220A (natural protein, human, UniProt Q6ZMU5-1 2-477, looked up)
# chain: B4 chain with R219A, A276W
# notes: as for B5
# B16: TRIM72 M179A (natural protein, human, UniProt Q6ZMU5-1 2-477, looked up)
# chain: B4 chain with M178A, A276W
# notes: as for B5
# B17: full-length human TRIM72 protein (2-477) (natural protein, UniProt Q6ZMU5-1 2-477, looked up)
# chain: B4 chain with A276W
# notes: TRIM72 (MG53), human, residues 2-477; open reading frame of GenBank NM_001008274.4; A dimer in solution at low concentration; the RING domain is not seen in the crystal structure although the full-length protein was crystallised; also called MG53; Tripartite Motif Protein 72; source: E. coli Rosetta (DE3), purified (nickel column, Source Q, Superdex 200 increase); not shown: His-Sumo, N-terminal, …
# B18: TRIM72 C242S (natural protein, human, UniProt Q6ZMU5-1 2-477, looked up)
# chain: B4 chain with C241S, A276W
# notes: as for B5
# B19: TRIM72 C144S (natural protein, human, UniProt Q6ZMU5-1 2-477, looked up)
# chain: B4 chain with C143S, A276W
# notes: as for B5
# B20: TRIM72 I95A (natural protein, human, UniProt Q6ZMU5-1 2-477, looked up)
# chain: B4 chain with I94A, A276W
# notes: TRIM72, human, residues 2-477, point mutant in the B-box; also called I95A mutant; source: E. coli Rosetta (DE3), purified; not shown: His-Sumo, N-terminal, cleaved
# Molecular target: KAP1/TRIM28 (Homo sapiens) (UniProt Q13263)
# Experiment: not given
# Conditions: cited from earlier work
row,Molecule,Kd
1,KAP1/TRIM28 (from UniProt Q13263),10 µM

# Molecular target: the molecule itself
# Experiment: AUC + SEC-MALS; deletion constructs of TRIM72 in solution; 20 mM Tris-HCl pH 8.0, 200 mM NaCl, 0.3 mM TCEP
# Conditions: not given
row,Molecule,stoichiometry N
1,B1,2
2,B2,2
3,B3,2

# Molecular target: the molecule itself
# Experiment: SEC-MALS; point mutants, 100 μL at 1 mg/mL; Superdex 200 increase, 20 mM Tris-HCl pH 8.0, 200 mM NaCl, 0.3 mM TCEP
# Conditions: not given
row,Molecule,stoichiometry N
1,B4,2
2,B5,2
3,B6,2
4,B7,2
5,B8,2
6,B9,2
7,B10,2
8,B11,2
9,B12,2
10,B13,2
11,B14,2
12,B15,2
13,B16,2

# Molecular target: the molecule itself
# Experiment: AUC; sedimentation velocity, lower protein concentrations of the series 1-50 μM; 20 mM Tris-HCl pH 8.0, 200 mM NaCl, 0.3 mM TCEP, 20 °C; monomers to dimer
# Conditions: not given
row,Molecule,stoichiometry N
1,B17,2

# Molecular target: the molecule itself
# Experiment: cross-linking; disulfide bonds by oxidation: about 20 μM protein with 0-0.3% H2O2, 4 °C, 30 min, 20 mM Tris-HCl pH 8.0, 200 mM NaCl, 0.3 mM TCEP; non-reducing PAGE
# Conditions: not given
row,Molecule,binding result
1,B18,binds
2,B19,binds

# Molecular target: the molecule itself
# Experiment: AUC; sedimentation velocity, increasing protein concentration (1, 2, 10, 20, 50 μM); 20 mM Tris-HCl pH 8.0, 200 mM NaCl, 0.3 mM TCEP, 20 °C; SEDPHAT self-association; dimers to tetramer (and hexamer)
# Conditions: not given
Molecule,Kd,stoichiometry N
B17,~780 µM,4 and 6
B20,~2200 µM,–
